Paper PMC4624332 (Cell, 2015)

Key:
[1] = target: Tse6_(265-CT) (P. aeruginosa) (UniProt Q9I739); experiment: ITC
[2] = target: C-terminally octa-histidine-tagged Tse6 (full-length toxin) (P. aeruginosa, UniProt Q9I739 1-430); experiment: negative-stain electron microscopy
[3] = target: EF-Tu^EC•GDP (E. coli EF-Tu, GDP-bound), purified for ITC (E. coli, UniProt P0CE47 2-393); experiment: ITC
[4] = target: EF-Tu^PA•GDP (P. aeruginosa EF-Tu, GDP-bound), purified (P. aeruginosa, UniProt P09591 1-397); experiment: ITC
EF-Tu^PA•GDP (P. aeruginosa EF-Tu, GDP-bound), purified, sequence (P09591 whole entry): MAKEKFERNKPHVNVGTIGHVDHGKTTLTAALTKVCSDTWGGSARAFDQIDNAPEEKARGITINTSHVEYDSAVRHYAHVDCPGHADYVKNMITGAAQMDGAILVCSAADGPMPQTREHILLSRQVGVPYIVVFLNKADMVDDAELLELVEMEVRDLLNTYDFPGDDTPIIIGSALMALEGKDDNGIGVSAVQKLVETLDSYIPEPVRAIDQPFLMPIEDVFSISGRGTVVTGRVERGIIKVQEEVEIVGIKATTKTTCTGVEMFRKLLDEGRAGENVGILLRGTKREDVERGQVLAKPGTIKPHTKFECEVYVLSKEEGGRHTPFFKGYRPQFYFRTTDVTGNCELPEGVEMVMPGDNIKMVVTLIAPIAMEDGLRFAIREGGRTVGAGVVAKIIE

EF-Tu^EC•GDP (E. coli EF-Tu, GDP-bound), purified for ITC, sequence (P0CE47 2-393): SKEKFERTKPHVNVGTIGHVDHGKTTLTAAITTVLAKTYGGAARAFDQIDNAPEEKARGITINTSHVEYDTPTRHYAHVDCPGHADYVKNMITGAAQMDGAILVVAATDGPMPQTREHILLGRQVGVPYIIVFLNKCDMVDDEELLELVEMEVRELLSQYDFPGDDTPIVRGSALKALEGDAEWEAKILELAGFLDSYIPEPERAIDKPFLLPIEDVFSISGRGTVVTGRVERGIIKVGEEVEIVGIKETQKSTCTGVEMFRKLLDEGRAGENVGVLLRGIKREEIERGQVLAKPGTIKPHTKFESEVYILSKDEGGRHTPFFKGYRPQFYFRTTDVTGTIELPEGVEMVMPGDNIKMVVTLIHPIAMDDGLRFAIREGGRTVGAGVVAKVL

In the case of “EF-Tu with the antibiotic Aurodox (locked into its GTP-bound conformation) (from UniProt P09591 1-397) (natural protein)”, the fold reduction of the affinity with Aurodox against EF-Tu•GDP [1] is reported as 10 fold.

B1: EagT6, recombinant, in the purified Tse6 complex (natural protein)
chain: MTLYRLHEADLEIPDAWQDQSINIFKLPASGPAREASFVISRDASQGDAPFADYVARQLENAEKQLPGFKLHKRWDINIHGHAAVLLDYQWQREGRDLMLRQVFIERRPAVLITTLTTTPADLPHHEPAWKQAMQTLVPRPTPS
B1: binds [2].

B2: Tse6_(265-CT) (domain or fragment)
chain: QRRAYLNNKFGRSGNLDHDINYRGNRETAAKFFKSKDIDPADAESYMNGLDFNHPVRVETLAPGKNLWQYQSPGAPQGNWYTLSPRVQPTELGINPMGTNRAANTIEPKVLNSYRTTQKVEVLRSTAAPTDDFWSVKGQSYPAKGGAQQLFSNEKGSFGLLPREGS
B2 gave a Kd [3] of 81 nM and a Kd [4] of 23 nM.
